This note sets out measurements from paper PMC12399569 (2025).

This test deals with purified hTMPRSS2 protein (human, UniProt O15393 1-492). As to the kind of experiment: SPR. (Surface plasmon resonance follows binding to a sensor surface in real time, without labels.)
purified hTMPRSS2 protein, sequence (O15393 whole entry): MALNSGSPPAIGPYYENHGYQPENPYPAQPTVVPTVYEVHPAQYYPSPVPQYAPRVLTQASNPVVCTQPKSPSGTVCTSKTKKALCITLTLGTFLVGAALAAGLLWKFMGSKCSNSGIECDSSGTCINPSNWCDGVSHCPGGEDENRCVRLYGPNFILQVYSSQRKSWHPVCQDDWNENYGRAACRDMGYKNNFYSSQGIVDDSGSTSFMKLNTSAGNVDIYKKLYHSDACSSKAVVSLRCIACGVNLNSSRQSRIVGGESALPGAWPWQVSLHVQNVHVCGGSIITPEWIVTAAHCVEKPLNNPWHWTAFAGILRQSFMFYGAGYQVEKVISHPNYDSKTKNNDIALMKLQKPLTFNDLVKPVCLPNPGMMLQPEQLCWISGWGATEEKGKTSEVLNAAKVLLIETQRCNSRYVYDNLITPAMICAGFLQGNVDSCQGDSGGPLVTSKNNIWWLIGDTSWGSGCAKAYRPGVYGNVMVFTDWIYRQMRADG

B1: Spike protein (recombinant, analyte of the ternary SPR experiment) (natural protein)
chain: CQTTNGLNTSYSVCNGCVGYSENVFAVESGGYIPSDFAFNNWFLLTNTSSVVDGVVRSFQPLLLNCLWSVSGLRFTTGFVYFNGTGRGDCKGFSSDVLSDVIRYNLNFEENLRRGTILFKTSYGVVVFYCTNNTLVSGDAHIPFGTVLGNFYCFVNTTIGNETTSAFVGALPKTVREFVISRTGHFYINGYRYFTLGNVEAVNFNVTTAETTDFCTVALASYADVLVNVSQTSIANIIYCNSVINRLRCDQLSFDVPDGFYSTSPIQSVELPVSIVSLPVYHKHTFIVLYVDFKPQSGGGKCFNCYPAGVNITLANFNETKGPLCVDTSHFTTKYVAVYANVGRWSASINTGNCPFSFGKVNNFVKFGSVCFSLKDIPGGCAMPIVANWAYSKYYTIGSLYVSWSDGDGITGVPQPVEGVSSFMNVTLDKCTKYNIYDVSGVGVIRVSNDTFLNGITYTSTSGNLLGFKDVTKGTIYSITPCNPPDQLVVYQQAVVGAMLSENFTSYGFSNVVELPKFFYASNGTYNCTDAVLTYSSFGVCADGSIIAVQPRNVSYDSVSAIVTANLSIPSNWTTSVQVEYLQITSTPIVVDCSTYVCNGNVRCVELLKQYTSACKTIEDALRNSARLESADVSEMLTFDKKAFTLANVSSFGDYNLSSVIPSLPTSGSRVAGRSAIEDILFSKLVTSGLGTVDADYKKCTKGLSIADLACAQYYNGIMVLPGVADAERMAMYTGSLIGGIALGGLTSAVSIPFSLAIQARLNYVALQTDVLQENQKILAASFNKAMTNIVDAFTGVNDAITQTSQALQTVATALNKIQDVVNQQGNSLNHLTSQLRQNFQAISSSIQAIYDRLDTIQADQQVDRLITGRLAALNVFVSHTLTKYTEVRASRQLAQQKVNECVKSQSKRYGFCGNGTHIFSIVNAAPEGLVFLHTVLLPTQYKDVEAWSGLCVDGTNGYVLRQPNLALYKEGNYYRITSRIMFEPRIPTMADFVQIENCNVTFVNISRSELQTIVPEYIDVNKTLQELSYKLPNYTVPDLVVEQYNQTILNLTSEISTLENKSAELNYTVQKLQTLIDNINSTLVDLKWLNRVETYIKWP
One may read the Kd as the constant that tells how readily two partners part at equilibrium. Turning to B1, the Kd amounted to 1360 nM.
